This passage reports binding result and Kd results from US20250099534A1 (TECHNION RESEARCH AND DEVELOPMENT FOUNDATION, published 2025).

Starred links: 1 amine or outer side, 2 acyl side, 3 side chain; linkers in the order of their positions; H or OH if unused. Positions of bridges follow the written chain, without caps; N, C: chain ends. Primed or numbered codes have the meaning given here. No end group written: not given here. *: point of attachment. mClBz(3) = 3-(chloromethyl)benzoic acid, non-amino acid initiator forming a thioether with the C-terminal-region Cys, O=C(c1cccc(C[*:3])c1)[*:2]; mClBz(4) = 3-(chloromethyl)benzoic acid initiator, its benzyl thioether with a Cys side chain closes the ring, O=C(c1cccc(C[*:3])c1)[*:2]; mClBz = N-terminal group cyclised as a benzyl thioether to a Cys, O=C(c1cccc(C[*:3])c1)[*:2]; C10F9 = S-aryl group from decafluorobiphenyl, Fc1c(F)c(F)c(-c2c(F)c(F)c(*)c(F)c2F)c(F)c1F; mBz = 3-(methylene)benzoyl on the N-terminal amine, O=C(c1cccc(C[*:3])c1)[*:2]; C6F5 = pentafluorophenyl group on the Cys sulfur, Fc1c(F)c(F)c(*)c(F)c1F; Bn = c1ccc(C*)cc1; Acm = CC(=O)NC*

As a reminder, the Kd is the equilibrium constant for the complex coming apart.

To fix the notation:
B1: cyclic peptide 2 (CP1-L1C) (peptide)
peptide: mClBz-CLIWIGSSKNPYILCG
modifications: bridge N-15; not fully specified (C-terminus, bridges)
notes: also called CP2
B2: 11 (peptide)
peptide: mBz-LLIWIGSSKNCYILCG-NH2
modifications: thioether N-15
SMILES: CC[C@H](C)[C@@H]1NC(=O)[C@H](Cc2c[nH]c3ccccc23)NC(=O)[C@H]([C@@H](C)CC)NC(=O)[C@H](CC(C)C)NC(=O)[C@H](CC(C)C)NC(=O)c2cccc(c2)CSC[C@@H](C(=O)NCC(N)=O)NC(=O)[C@H](CC(C)C)NC(=O)[C@H]([C@@H](C)CC)NC(=O)[C@H](Cc2ccc(O)cc2)NC(=O)[C@H](CS)NC(=O)[C@H](CC(N)=O)NC(=O)[C@H](CCCCN)NC(=O)[C@H](CO)NC(=O)[C@H](CO)NC(=O)CNC1=O
notes: also called CP1-P11C; cyclic peptide 11
B3: 10 (peptide)
peptide: mBz-LLIWIGSSKCPYILCG-NH2
modifications: thioether N-15
SMILES: CC[C@H](C)[C@@H]1NC(=O)[C@H](Cc2c[nH]c3ccccc23)NC(=O)[C@H]([C@@H](C)CC)NC(=O)[C@H](CC(C)C)NC(=O)[C@H](CC(C)C)NC(=O)c2cccc(c2)CSC[C@@H](C(=O)NCC(N)=O)NC(=O)[C@H](CC(C)C)NC(=O)[C@H]([C@@H](C)CC)NC(=O)[C@H](Cc2ccc(O)cc2)NC(=O)[C@@H]2CCCN2C(=O)[C@H](CS)NC(=O)[C@H](CCCCN)NC(=O)[C@H](CO)NC(=O)[C@H](CO)NC(=O)CNC1=O
notes: also called CP1-N10C; cyclic peptide 10
B4: 9 (peptide)
peptide: mBz-LLIWIGSCKNPYILCG-NH2
modifications: thioether N-15
SMILES: CC[C@H](C)[C@@H]1NC(=O)[C@H](Cc2c[nH]c3ccccc23)NC(=O)[C@H]([C@@H](C)CC)NC(=O)[C@H](CC(C)C)NC(=O)[C@H](CC(C)C)NC(=O)c2cccc(c2)CSC[C@@H](C(=O)NCC(N)=O)NC(=O)[C@H](CC(C)C)NC(=O)[C@H]([C@@H](C)CC)NC(=O)[C@H](Cc2ccc(O)cc2)NC(=O)[C@@H]2CCCN2C(=O)[C@H](CC(N)=O)NC(=O)[C@H](CCCCN)NC(=O)[C@H](CS)NC(=O)[C@H](CO)NC(=O)CNC1=O
notes: also called CP1-S8C; cyclic peptide 9
B5: cyclic peptide 19, CP1-L1C-CH2C10H7O3 (peptide)
peptide: {mClBz(3)}-C(7‑methoxycoumarin‑4‑ylmethyl)LIWIGSSKNPYILCG
modifications: bridge N-15; not fully specified (C-terminus, bridges)
B6: 13 (peptide)
peptide: mBz-LLIWIGSSKNPYCLCG-NH2
modifications: thioether N-15
SMILES: CC[C@H](C)[C@@H]1NC(=O)[C@H](Cc2c[nH]c3ccccc23)NC(=O)[C@H]([C@@H](C)CC)NC(=O)[C@H](CC(C)C)NC(=O)[C@H](CC(C)C)NC(=O)c2cccc(c2)CSC[C@@H](C(=O)NCC(N)=O)NC(=O)[C@H](CC(C)C)NC(=O)[C@H](CS)NC(=O)[C@H](Cc2ccc(O)cc2)NC(=O)[C@@H]2CCCN2C(=O)[C@H](CC(N)=O)NC(=O)[C@H](CCCCN)NC(=O)[C@H](CO)NC(=O)[C@H](CO)NC(=O)CNC1=O
notes: also called CP1-I13C; cyclic peptide 13
B7: cyclic peptide 20, CP1-L1C-C6F5 (peptide)
peptide: mClBz-C(C6F5)LIWIGSSKNPYILCG
modifications: thioether N-15
B8: cyclic peptide 15, CP1-L1C-CH3 (peptide)
peptide: {mClBz(3)}-C(CH3)LIWIGSSKNPYILCG
modifications: bridge N-15; not fully specified (C-terminus, bridges)
B9: 12 (peptide)
peptide: mBz-LLIWIGSSKNPCILCG-NH2
modifications: thioether N-15
SMILES: CC[C@H](C)[C@@H]1NC(=O)[C@H](Cc2c[nH]c3ccccc23)NC(=O)[C@H]([C@@H](C)CC)NC(=O)[C@H](CC(C)C)NC(=O)[C@H](CC(C)C)NC(=O)c2cccc(c2)CSC[C@@H](C(=O)NCC(N)=O)NC(=O)[C@H](CC(C)C)NC(=O)[C@H]([C@@H](C)CC)NC(=O)[C@H](CS)NC(=O)[C@@H]2CCCN2C(=O)[C@H](CC(N)=O)NC(=O)[C@H](CCCCN)NC(=O)[C@H](CO)NC(=O)[C@H](CO)NC(=O)CNC1=O
notes: also called CP1-Y12C; cyclic peptide 12
B10: cyclic peptide 17, CP1-L1C-CH2CONH2 (peptide)
peptide: {mClBz(3)}-C(CH2CONH2)LIWIGSSKNPYILCG
modifications: bridge N-15; not fully specified (C-terminus, bridges)
B11: 14 (peptide)
peptide: mBz-C(Acm)LIWIGSSKNPYILCG-NH2
modifications: thioether N-15
SMILES: CC[C@H](C)[C@@H]1NC(=O)[C@H](Cc2c[nH]c3ccccc23)NC(=O)[C@H]([C@@H](C)CC)NC(=O)[C@H](CC(C)C)NC(=O)[C@H](CSCNC(C)=O)NC(=O)c2cccc(c2)CSC[C@@H](C(=O)NCC(N)=O)NC(=O)[C@H](CC(C)C)NC(=O)[C@H]([C@@H](C)CC)NC(=O)[C@H](Cc2ccc(O)cc2)NC(=O)[C@@H]2CCCN2C(=O)[C@H](CC(N)=O)NC(=O)[C@H](CCCCN)NC(=O)[C@H](CO)NC(=O)[C@H](CO)NC(=O)CNC1=O
notes: Acm-protected precursor of cyclic peptide 2; also called CP1-L1C-Acm; cyclic peptide 14
B12: cyclic peptide 18, CP1-L1C-CH2C10H7 (peptide)
peptide: {mClBz(3)}-C(CH2C10H7)LIWIGSSKNPYILCG
modifications: bridge N-15; not fully specified (C-terminus, bridges)
B13: cyclic peptide 16, CP1-L1C-CH2C6H5 (peptide)
peptide: {mClBz(3)}-C(Bn)LIWIGSSKNPYILCG
modifications: bridge N-15; not fully specified (C-terminus, bridges)
B14: cyclic peptide 21, CP1-L1C-C10F9 (peptide)
peptide: mClBz-C(C10F9)LIWIGSSKNPYILCG
modifications: thioether N-15
B15: cyclic peptide 1 (CP1) (peptide)
peptide: {mClBz(4)}-LLIWIGSSKNPYILCG-NH2
modifications: thioether N-15
SMILES: CC[C@H](C)[C@@H]1NC(=O)[C@H](Cc2c[nH]c3ccccc23)NC(=O)[C@H]([C@@H](C)CC)NC(=O)[C@H](CC(C)C)NC(=O)[C@H](CC(C)C)NC(=O)c2cccc(c2)CSC[C@@H](C(=O)NCC(N)=O)NC(=O)[C@H](CC(C)C)NC(=O)[C@H]([C@@H](C)CC)NC(=O)[C@H](Cc2ccc(O)cc2)NC(=O)[C@@H]2CCCN2C(=O)[C@H](CC(N)=O)NC(=O)[C@H](CCCCN)NC(=O)[C@H](CO)NC(=O)[C@H](CO)NC(=O)CNC1=O
notes: Found by RaPID selection, then made by Fmoc-SPPS; also called lead cyclic peptide 1

The first experiment deals with T1, Lys48-linked Di-Ub (UniProt P0CG47 1-76, isopeptide bond between the C-terminal Gly of one Ub and Lys48 of the other).
T1 construct: mature
Kind of experiment: fluorescence-based assay of relative binding on Lys48-linked Di-Ub, normalised to mJ08-L8W; the labelled competitor is not named [iv].
In the case of B1, the binding result is “binds”.

The next experiment deals with T2, biotinylated-Lys63 linked Di-Ub (UniProt P0CG47 1-76, isopeptide bond between the C-terminal Gly of the distal Ub and Lys63 of the proximal Ub; biotin tag at the N-terminus of the distal Ub).
T2 construct: mature; Immobilised on streptavidin plates or on the SPR CAPture chip; also called K63-linked Di-Ub; biotin-Lys63 linked Di-Ub
Kind of experiment: fluorescence-based competitive assay: unlabeled peptide, 5.0 molar equiv., pre-bound to biotinylated Lys63-linked Di-Ub on a streptavidin plate, then competed with CP1-FITC (1 equiv.); signal change relative to 1 (CP1), Y=[1-(a/b)]x100. The procedure: Streptavidin-coated microplate (96 well plate) was washed with HEPES buffer (50 Mm HEPES, 150 Mm NaCl, pH 7.30) and then in each well incubated 1 μg of biotinylated-Lys63-linked Di-Ub in 100 μl of the same buffer at RT. for 30 min. Additional wells were kept without biotinylated-Lys63-Di-Ub for blank subtraction. After the washing step, peptide standard (CP1) and unlabeled peptides were incubated (5.0 molar equivalent relative to biotin-Lys63-linked Di-Ub) at RT for 30 minutes for saturation binding to the target. Then 1 molar equivalent of FITC labeled peptide-standard (CP1-FITC) relative to biotinylated-Lys63-linked Di-Ub was incubated to compete with unlabeled peptides at RT for 30 min. After releasing bounded peptides on treatment with 6 M Guanidinium chloride (Gnd·HCl), the fluorescence values were measured (λex=480 nm and λem=525 nm). These values were normalized and then calculated the relative change in binding with the following formula:
Y=[1−(a/b)]×100 [0289] Where Y=Signal change relative to the standard (CP1) (in terms of %). [0290] a=Measured signal value of each peptide candidate (in Relative Fluorescence Units). [0291] b=Measured signal value of standard peptide (CP1). The dissociation constant (KD) of fluorescein-labeled peptide (CP1-FITC) was calculated in accordance with the literature procedure (Vamisetti G B et al., 2021).
As to B2, the binding result was “binds”.
On the same count and under the same terms, the result for B3 reads “binds”; that for B4, “binds”.
B5: the binding result is “binds”.
On to B6, for which the binding result is on record as “binds”.
B7: the binding result was “binds”.
In the case of B8, the binding result was “binds”.
For the molecule B9, the binding result is reported as “binds”.
Regarding B10, the binding result is recorded as “binds”.
Turning to B11, the binding result is listed as “binds”.
Same read-out and setting: the result for B12 reads “binds”; that for B13, “binds”; that for B14, “binds”.
Same read-out and setting: to B1 belongs “binds”.

The target of a further experiment is T3, Lys48-linked Tetra-Ub (UniProt P0CG47 1-76, isopeptide bonds between the C-terminal Gly and Lys48 of successive Ub units).
T3 construct: mature
The experiment can be described thus: fluorescence-based assay of relative binding on Lys48-linked Tetra-Ub, normalised to Ub4_ix; the labelled competitor is not named [panel headed '(iv) Binding of 1 and 2 against Lys48 Tetra-Ub as a target' (v) of the legend].
For B1, the binding result is given as “binds”.

The target in a further experiment is T2, biotinylated-Lys63 linked Di-Ub. The experiment can be described thus: SPR (BIACORE T100), biotinylated Lys63 Di-Ub on a CAPture chip. The protocol:
The binding of cyclic peptide 1 (CP1) against the target, Lys63 linked Di-Ub was determined using BIACORE T100 instrument (GE Healthcare) equipped with a biotin CAPture kit series S chip. 50 mM HEPES (pH=7.30, 150 mM NaCl, 0.05% Tween 20, 2.0 mM DTT, 0.2% DMSO) was used as buffer. Biotinylated-Lys63 linked Di-Ub was loaded on the SPR chip. By using various concentrations of peptide.
On the technique in general: SPR reads the build-up and loss of mass on a sensor chip optically.
As for B15, the affinity, expressed as Kd, was 16 nM.
